Measured values published in article PMC3074231 (Journal of neurochemistry, 2011).
Where “and” joins values, the source holds several entries; their conditions need not be identical. Equal values may be shown once. One block for each molecule: values may come before it.

Assays:
[1] = biological target: STEP46 (cytosolic isoform of STEP), wild type
co-IP [2] = biological target: the molecule itself; assay: co-IP
co-IP [3] = biological target: the molecule itself; assay: co-IP; remark: listed apart in the source

phosphatase activity of STEP46 in the presence of H2O2, % of control [1]: 40.3 % of control
Molecule: STEP46 (cytosolic isoform of STEP), wild type (enzyme)

B1: STEP61 Cys 65 to Ser (enzyme, UniProt P54830-1 1-541, looked up)
chain: MCCSERLLGLPQPVEMEAPDEAEGLPSKQKEMPPPPPPSPPSEPAQKLPPQGAGSHSLTVRSSLSLFAASQFLLACGVLWLSGHGHSWLQNTTDLISSSLTVLNHLGPVAWLGSGTWGIPSLLLVSLTVSLVIVTTLVWHLLKAPPEPPAPLPPEDRRQSVSRQPSFTYSEWMEEKVEDDFLDLDAVPETPVFDCVMDIKPETDPASLTVKSMGLQERRGSNVSLTLDMCTPGCNEEGFGYLVSPREESAHEYLLSASRVLRAEELHEKALDPFLLQAEFFEIPMNFVDPKEYDIPGLVRKNRYKTILPNPHSRVRLTSPDPEDPLSSYINANYIRGYSGEEKVYIATQGPIVSTVADFWRMVWQERTPIIVMITNIEEMNEKCTEYWPEEQVVHDGVEITVQKVIHTEDYRLRLISLRRGTEERSLKHYWFTSWPDQKTPDRAPPLLHLVREVEEAAQQEGPHCSPIIVHCSAGIGRTGCFIATSICCQQLRREGVVDILKTTCQLRQDRGGMIQTCEQYQFVHHAMSLYEKQLSLQSSE
co-immunoprecipitated STEP61-myc, % of WT control (co-IP [2]): 38.4 % of control

B2: STEP61 Cys 76 to Ser (enzyme, UniProt P54830-1 1-541, looked up)
chain: MCCSERLLGLPQPVEMEAPDEAEGLPSKQKEMPPPPPPSPPSEPAQKLPPQGAGSHSLTVRSSLCLFAASQFLLASGVLWLSGHGHSWLQNTTDLISSSLTVLNHLGPVAWLGSGTWGIPSLLLVSLTVSLVIVTTLVWHLLKAPPEPPAPLPPEDRRQSVSRQPSFTYSEWMEEKVEDDFLDLDAVPETPVFDCVMDIKPETDPASLTVKSMGLQERRGSNVSLTLDMCTPGCNEEGFGYLVSPREESAHEYLLSASRVLRAEELHEKALDPFLLQAEFFEIPMNFVDPKEYDIPGLVRKNRYKTILPNPHSRVRLTSPDPEDPLSSYINANYIRGYSGEEKVYIATQGPIVSTVADFWRMVWQERTPIIVMITNIEEMNEKCTEYWPEEQVVHDGVEITVQKVIHTEDYRLRLISLRRGTEERSLKHYWFTSWPDQKTPDRAPPLLHLVREVEEAAQQEGPHCSPIIVHCSAGIGRTGCFIATSICCQQLRREGVVDILKTTCQLRQDRGGMIQTCEQYQFVHHAMSLYEKQLSLQSSE
co-immunoprecipitated STEP61-myc, % of WT control (co-IP [2]): 35.2 % of control

B3: STEP61 (STriatal Enriched Phosphatase, membrane associated isoform), wild type (enzyme, UniProt P54830-1 1-541, looked up)
chain: MCCSERLLGLPQPVEMEAPDEAEGLPSKQKEMPPPPPPSPPSEPAQKLPPQGAGSHSLTVRSSLCLFAASQFLLACGVLWLSGHGHSWLQNTTDLISSSLTVLNHLGPVAWLGSGTWGIPSLLLVSLTVSLVIVTTLVWHLLKAPPEPPAPLPPEDRRQSVSRQPSFTYSEWMEEKVEDDFLDLDAVPETPVFDCVMDIKPETDPASLTVKSMGLQERRGSNVSLTLDMCTPGCNEEGFGYLVSPREESAHEYLLSASRVLRAEELHEKALDPFLLQAEFFEIPMNFVDPKEYDIPGLVRKNRYKTILPNPHSRVRLTSPDPEDPLSSYINANYIRGYSGEEKVYIATQGPIVSTVADFWRMVWQERTPIIVMITNIEEMNEKCTEYWPEEQVVHDGVEITVQKVIHTEDYRLRLISLRRGTEERSLKHYWFTSWPDQKTPDRAPPLLHLVREVEEAAQQEGPHCSPIIVHCSAGIGRTGCFIATSICCQQLRREGVVDILKTTCQLRQDRGGMIQTCEQYQFVHHAMSLYEKQLSLQSSE
co-immunoprecipitated STEP61-myc, % of untreated WT control (10 mM H2O2, 5 min) (co-IP [3]): 232 % of WT control

B4: STEP61 C65S/C76S (enzyme, UniProt P54830-1 1-541, looked up)
chain: MCCSERLLGLPQPVEMEAPDEAEGLPSKQKEMPPPPPPSPPSEPAQKLPPQGAGSHSLTVRSSLSLFAASQFLLASGVLWLSGHGHSWLQNTTDLISSSLTVLNHLGPVAWLGSGTWGIPSLLLVSLTVSLVIVTTLVWHLLKAPPEPPAPLPPEDRRQSVSRQPSFTYSEWMEEKVEDDFLDLDAVPETPVFDCVMDIKPETDPASLTVKSMGLQERRGSNVSLTLDMCTPGCNEEGFGYLVSPREESAHEYLLSASRVLRAEELHEKALDPFLLQAEFFEIPMNFVDPKEYDIPGLVRKNRYKTILPNPHSRVRLTSPDPEDPLSSYINANYIRGYSGEEKVYIATQGPIVSTVADFWRMVWQERTPIIVMITNIEEMNEKCTEYWPEEQVVHDGVEITVQKVIHTEDYRLRLISLRRGTEERSLKHYWFTSWPDQKTPDRAPPLLHLVREVEEAAQQEGPHCSPIIVHCSAGIGRTGCFIATSICCQQLRREGVVDILKTTCQLRQDRGGMIQTCEQYQFVHHAMSLYEKQLSLQSSE
co-immunoprecipitated STEP61-myc, % of WT control (co-IP [2]): 13.5 % of control and 16.6 % of WT control
co-immunoprecipitated STEP61-myc, % of untreated WT control (10 mM H2O2, 5 min) (co-IP [3]): 39.4 % of WT control
